Assay: yeast display, Sf9 membrane polyspecificity reagent, FACS + sequencing; frameworks hold sequencing errors
Outline: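 Polyreactivity labels are assigned by the sorting gate from which each nanobody was recovered. The gates were low and high (top ~1%), set on anti-HA fluorescence for expression and streptavidin fluorescence for reagent binding. Before sorting, galactose-induced (36–48 hours) yeast display cells were stained for 1 hour at 4 °C with 10% biotinylated, detergent-solubilized Sf9 membrane reagent.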
With “QVQLVESGGGLVQAGGSLRLSCAASGSTFYVNDMGWYRQAPGKERELVAAITWGVGDTYYADSVKGRFTISRDNAKNTVYLQMNSLKPEDTAVYYCAADTSYYYAYTQMEYWGQGTQVTVSS” the “polyreactivity (PSR sort gate)” value was “low polyreactivity”. With “QVQLVESGGGLVQAGGSLRLSCAASGSTFYVNTMGGSRQAPGKERELVAAISGSGGSTYYADSVKGRFTISRDNAKNTVYLQMNCLKPEETAVYYCAAYGWRLWYRFNYWGQGTQVTVSS” the “polyreactivity (PSR sort gate)” value was “high polyreactivity”. For “QVQLVESGGGLVQAGGSLRLSCAASGSTFYVNTMGWYRQAPGKERELVAAINWRGGSTYYADSVKWRFTISRDNAKNTVYLQMNSLKPEDTAVYYCAAYGFYRYVTAYIYDMDYWGQGTQVSVSS”, the “polyreactivity (PSR sort gate)” value was “low polyreactivity”. In the case of “QVQLVESGGGLVQAGGSLRLSCAASGSTFYVYAMGWYRQAPRKERELVAAIDGSTGSTYYADSVKGRFTISRDNAKNTVYLQMNSLKPEDTAVYYCNADYYYEVDSWGQGTQVTVSS”, the “polyreactivity (PSR sort gate)” value is reported as “low polyreactivity”. With “QVQLVESGGGLVQAGGSLRLSCAASGSTFYWYTMGWYRQAPGKERELVATITSSGGRTYYADSVKGRFTISRDNAKNTVYLQMNSLKPEDTAVYYCAAYRRNSRWELDYWGQGTQVTVSS” the “polyreactivity (PSR sort gate)” value was “high polyreactivity”. With “QVQLVESGGGLVQAGGSLRLSCAASGSTFYYNAMGWYRQAPGKEREFVAAISSRGGSTYYADSVKGRFTISRDNAKTTVYLQMNSLKPEDTAVYYCAAKYRHRYDWGQGTQVTVSS” the “polyreactivity (PSR sort gate)” value was “high polyreactivity”. For “QVQLVESGGGLVQAGGSLRLSCAASGSTFYYNAMGWYRQAPGKEREFVAGITSSGAGTYYADSVKGRFTISRDNAKNTVYLQMNSLKPEDTAVYYCAAVYRWEGRTYRYGYWGQGTQVTVSS”, the “polyreactivity (PSR sort gate)” value was “high polyreactivity”. In the case of “QVQLVESGGGLVQAGGSLRLSCAASGSTFYYNAMGWYRQAPGKERELDARISRSGGSTYADSVKGRFTISRDNAKNTVYLQMNSLKPEDTAVYYCNADAYGTPEFTSYAVRYDYWGQGTQVTVSS”, the “polyreactivity (PSR sort gate)” value is reported as “low polyreactivity”. In the case of “QVQLVESGGGLVQAGGSLRLSCAASGSTFYYNAMGWYRQAPGKERELVAAIRTSGGRTYYADSVKGRFTISRDNAKNTVYLQMNSLKPEDTAVYYCAADGTAVHYTYDYWGQGTQVTVSS”, the “polyreactivity (PSR sort gate)” value is reported as “low polyreactivity”. In the case of “QVQLVESGGGLVQAGGSLRLSCAASGSTFYYNAMGWYRQAPGKERELVAAITWGGGSTYYADSVKGRFTISRDNAKNTVYLQMNSLKPEDTAVYYCNAEDYVWYYYYYDIYDYWGQGTQVTVSS”, the “polyreactivity (PSR sort gate)” value is reported as “high polyreactivity”. With “QVQLVESGGGLVQAGGSLRLSCAASGSTFYYNAMGWYRQAPGKERELVATISGGGTTYYADSVKGRFTISRDNAKNSVYLQMISLKPEDTAVYYCATDWHIEYLYRKVHGRKHDYWGQGTQVTVSS” the “polyreactivity (PSR sort gate)” value was “low polyreactivity”. For “QVQLVESGGGLVQAGGSLRLSCAASGSTFYYNDMGWYRQAPGKERELVAAIRTSGSTNYADSVKGRFTISRDNAKNTVYLQMNSLKPEDTAVYYCNAVVRHWFQGWYGRGDDYWGQGTQVTVSS”, the “polyreactivity (PSR sort gate)” value was “low polyreactivity”. For “QVQLVESGGGLVQAGGSLRLSCAASGSTFYYNVMGWYRQAPGKERELVAAITLSGGSTYADSVKGRFTISRDNAKNTVYLQMNSLKPEDTAVYYCAKKGRYGRWGYKFDYWGQGTQVTVSS”, the “polyreactivity (PSR sort gate)” value was “low polyreactivity”. For “QVQLVESGGGLVQAGGSLRLSCAASGSTFYYYAMGWYRQAPGKERELVAAITNVTSTYYADSVKGRFTISRDNEKNTVYLMMNSLKPEDTAVYYCAAPDHCSEVTYDYWGQGTQVCVSS”, the “polyreactivity (PSR sort gate)” value was “low polyreactivity”. In the case of “QVQLVESGGGLVQAGGSLRLSCAASGSTFYYYSMGWNRQAPGKERELVAAISYRGGTTYYADSVKGRFTISRDNAKNTVYLQMNSLKPEDTAVYYCAAGVSWYRPGSYTGGYWGQGTQVTVSS”, the “polyreactivity (PSR sort gate)” value is reported as “high polyreactivity”. With “QVQLVESGGGLVQAGGSLRLSCAASGSTGLNAMGWYRQAPGKERELVAAITWSGGSTYYADSVKGRFTISRDNAKNTVYLQMNSLKPVDTAVYYCAAQYTWYKSRYGYWGQGTQVTVSS” the “polyreactivity (PSR sort gate)” value was “high polyreactivity”. In the case of “QVQLVESGGGLVQAGGSLRLSCAASGSTHVYAMGWYRQAPGKERELVAAISLNTGSTYYADSVKGRFTISRDNAKNTVYLQMNSLKPEDTAVYRLNYWGQGTQVTVSS”, the “polyreactivity (PSR sort gate)” value is reported as “low polyreactivity”. With “QVQLVESGGGLVQAGGSLRLSCAASGSTIDYYAMGWYRQAPGKERELVAAISWSGGSTYYADSVKGRFTISRDNAKNTVYLQMYSLKTEDTAVYYCAAYSAFYTGSYNGWSDYDYWGQGTQVTVSS” the “polyreactivity (PSR sort gate)” value was “low polyreactivity”. With “QVQLVESGGGLVQAGGSLRLSCAASGSTIEDYAMGWYRQAPGKERELVAAITSGDSTNYADSVKGRFTISRDNAKNTVYLQMISLKPEDTAVYYCFDLSNRYAVRYDYWGQGTQVTVSS” the “polyreactivity (PSR sort gate)” value was “high polyreactivity”. With “QVQLVESGGGLVQAGGSLRLSCAASGSTIEDYAMGWYRQAPGKERELVAAITSGDSTNYADSVKGRFTISRDNAKNTVYLQMNSLKPEDTAVYYCAARLRYSFWYWDDYWGQGTQVTVSS” the “polyreactivity (PSR sort gate)” value was “high polyreactivity”. For “QVQLVESGGGLVQAGGSLRLSCAASGSTIFLYDMGWYRQAPGKERELVAAITISGGSTYYADSVKGRFTISRDNAKNTVYLQMNSLKPEDTAVYDCNADYQWYLGGYDYWGQGTQVTVSS”, the “polyreactivity (PSR sort gate)” value was “high polyreactivity”. For “QVQLVESGGGLVQAGGSLRLSCAASGSTIFSYAMGWYRQAPGKERELVAAITYRSSRTYYADSVKGRFTISRDNAKNTVYLQMNSLKPEDTAVYYCAAGYFSYRRYDYWGQGTQVTVSS”, the “polyreactivity (PSR sort gate)” value was “high polyreactivity”. In the case of “QVQLVESGGGLVQAGGSLRLSCAASGSTIGDNAMGWYRQAPGIERELGASMSWSGASTYYADSVKGRFTISRDNAKNTVYLQMNCLKPDDTAVYYCGVYYSYYSHLYHMLFYYWGQGTQVTVSS”, the “polyreactivity (PSR sort gate)” value is reported as “low polyreactivity”. With “QVQLVESGGGLVQAGGSLRLSCAASGSTILAYALGWYRPAPGKERELVAAIRRGGTSTYSADSLKGRFTISRDKAKKTVYLQINSLQPEDTAVYYCNKAYITKRGVSGSNDYWGQGTQVTVSS” the “polyreactivity (PSR sort gate)” value was “low polyreactivity”. In the case of “QVQLVESGGGLVQAGGSLRLSCAASGSTILQNAMGWYRQAPGKERELVAAISRSGGSTYYADSVKGRFTISRDNAKNTVYLQMNSLKPEDTAVYYCARRYWPGSAYWIYDYWGQGTQVTVSS”, the “polyreactivity (PSR sort gate)” value is reported as “high polyreactivity”. For “QVQLVESGGGLVQAGGSLRLSCAASGSTIPSNAMGWYRQAPGKERELVASITYTDGTTRYADSVKGRFTISRDNAKNTVYLQMNSLKPEDTAVYYCNAVYYREGMDYWGQGTQVTVSS”, the “polyreactivity (PSR sort gate)” value was “low polyreactivity”. With “QVQLVESGGGLVQAGGSLRLSCAASGSTIPSYALGWYRPAPGKERELGASITYSDGTTRYADSVKARFTISRDNAKNTVYLQMNSLKPEDTAVYYCNAVYYREGMDYWGQGTQVTVSS” the “polyreactivity (PSR sort gate)” value was “low polyreactivity”. For “QVQLVESGGGLVQAGGSLRLSCAASGSTIPSYAMGWYRQAPGKERELVASITYSDGTTRYADSVKGRFTISRDNAMNPVYFQMNSLKPEDSAVYYCNAVYYREGMDYWGQGTQVTVSS”, the “polyreactivity (PSR sort gate)” value was “low polyreactivity”. For “QVQLVESGGGLVQAGGSLRLSCAASGSTIPTNAMGWYSQAPGKERELVAAITSTGSTYADSVKGRFTISRDNAKNTDYLQMNSLKPEDTAVYYCAADTQWTTPYDYWGQGTPVTVSS”, the “polyreactivity (PSR sort gate)” value was “low polyreactivity”. For “QVQLVESGGGLVQAGGSLRLSCAASGSTIRDYAMGWYRQAPGKERELVAVIDNSGGRTYYADSVKGRFTISRDNAKNTVYLQMNSLKAEDTAVYYCNTRRIAQYGYWGQGTQVTVSS”, the “polyreactivity (PSR sort gate)” value was “high polyreactivity”. In the case of “QVQLVESGGGLVQAGGSLRLSCAASGSTIRFYYMGWYRQEPGKERELVAAITGIGDSTYYSDSVKGRFTISRDNAKNSVYLQMNSLKPEDTAVYYCAAERYYYTARLRYWRYFWGQGTQVTVSS”, the “polyreactivity (PSR sort gate)” value is reported as “high polyreactivity”. With “QVQLVESGGGLVQAGGSLRLSCAASGSTIRNYAMGWYRQAPGKERELVAAISSGGRTYYADSVKGRFTISRDNAKNTVYLQMNSLKPEDTAVYYCNTPYTVRGRYTYDYWGQGTQVTVSS” the “polyreactivity (PSR sort gate)” value was “high polyreactivity”. In the case of “QVQLVESGGGLVQAGGSLRLSCAASGSTIRTNTMGWYRQAPGKERELVAAITKSGGSTYYADSVKGRFTISRDNAKNTVYLQMNSLKPEDTAVYYCAARVLYRSGLRGDYWGQGTQVTVSS”, the “polyreactivity (PSR sort gate)” value is reported as “high polyreactivity”. With “QVQLVESGGGLVQAGGSLRLSCAASGSTIRYYAMGWYRQAPGKEREFVAAITRSGGRTYYADSVKGRFTISRDNAKNTVYLQMNSLKPEDTADYYCAKVLYSPIGKYDYWGQGTQVTVSS” the “polyreactivity (PSR sort gate)” value was “high polyreactivity”. With “QVQLVESGGGLVQAGGSLRLSCAASGSTIRYYAMGWYRQAPGKERQLVAYITTSGGTYYADSVKGRFTISRDNAKNTVYLQMHSLKPEDTAVYYCAARRQDYTYYRIYHFDYWGQGTQVTVSS” the “polyreactivity (PSR sort gate)” value was “high polyreactivity”. For “QVQLVESGGGLVQAGGSLRLSCAASGSTISINALGWSRQAPGKERELVAAITGGDTNTYYADSVKGRFTISRDTAKNTVYLLMNSLKPEDTAVYYCNARIYDYAGAGTWSYDSWGQGTQVTVSS”, the “polyreactivity (PSR sort gate)” value was “low polyreactivity”. In the case of “QVQLVESGGGLVQAGGSLRLSCAASGSTISPNSMGWYRQAPGKERELVAAISSDASTNYADSVKGRFTISRDNAKNTVYLQRNCLTPDDTALYYCAADLWTLIYLTDTYGHWGQGTQVTVSS”, the “polyreactivity (PSR sort gate)” value is reported as “low polyreactivity”. For “QVQLVESGGGLVQAGGSLRLSCAASGSTISRNAMGWYRQAPGKERELVAAITSRSGRTYYADSVKGRFTISRDNAKNTVYLQMNSLKPEDTAVYYCAATVYQGAYTYQFYWGQGTQVTVSS”, the “polyreactivity (PSR sort gate)” value was “high polyreactivity”. In the case of “QVQLVESGGGLVQAGGSLRLSCAASGSTISYYAMGWYRQAPGKERELVAAISSRGVITYYADSVKGRFTISRDNAKNTVYLQMNSLKPEDTAVYYCNVDSAWYPYETEDYWGQGTQVTVSS”, the “polyreactivity (PSR sort gate)” value is reported as “low polyreactivity”. In the case of “QVQLVESGGGLVQAGGSLRLSCAASGSTITSYAMRLYRQAPGKDRELVASISRSGGRTYYADSVKGRFTISRDNAKNTVYLQMNSLKPEDTAVYYCAADDYSATTRYYYWGQGTQVTVSS”, the “polyreactivity (PSR sort gate)” value is reported as “high polyreactivity”. With “QVQLVESGGGLVQAGGSLRLSCAASGSTITYYTMGWYRQAPGKERELVAAISGSGGRTYYADSVKGRFTISRDNEKNTVYLQMNSLKPEDTAVYYCAAVYQLSRYDYWGQGTQVTVSS” the “polyreactivity (PSR sort gate)” value was “high polyreactivity”. In the case of “QVQLVESGGGLVQAGGSLRLSCAASGSTIVPNTMGWYRQAPGKERELVAGITSGGSTYYADSVKGRFTISRDNAKNTVYLQMNSLKPEDTAVYYCAADDGSTANEKLIHEYNYWGQGTQVTVSS”, the “polyreactivity (PSR sort gate)” value is reported as “low polyreactivity”. In the case of “QVQLVESGGGLVQAGGSLRLSCAASGSTIVVNAMGWYRQAPGKERELVAAISSNGGSYYADSVKGRFTISRDNAKNTVYLQMNSLKPEDTAVYYCAADSREEGDYWGQGTQVTVSS”, the “polyreactivity (PSR sort gate)” value is reported as “low polyreactivity”.
